First the molecules themselves.
B1: OR4K15 (parent)
chain: GUUAACGGUCAUAGGCCAUGGAAACUAGGAGCACCAUUUCGCUGCCAGUGAAGAAAUGAACAAAGAAAAUCUGGGCCAGGCAGGCAUCAAAAGAAAUAGUCUUGCGCUCAACCAGAAAGUCUGUAAUCAUUUUAAGGGUA

In the data set the parent is B1. In words: self-cleavage, relative activity (ratio to wild type); higher = more cleavage; in vitro, sequencing; the parent is a self-cleaving ribozyme.
Turning to GUUAACGGUCAUAGGCCAUGGAAGCUAGGAGCACCAUUUCGCUGCCAGUGAAGAAAUGAACAAAGAAAAUCUGGGCCAGGCAGGCAUCAAAAGAAAUAGUCUUGCGCUCAACCAGAAAGUCUGUAAUCAUUUUAAGGAUA, the self-cleavage worked out at 1.18.
For GUUAACGGUCAUAGGCCAUGGAAGCUAGGAGCACCAUCUCGCUGCCAGUGAAGAAAUGAACAAAGAAAAUCUGGGCCAGGCAGGCAUCAAAAGAAAUAGUCUUGCGCUCAACCAGAAAGUCUGUAAUCAUUUUAAGGGUA, the self-cleavage is 1.46.
For the variant GUUAACGGUCAUAGGCCAUGGAAGCUAGGAGCACCAUUUCGCCGCCAGUGAAGAAAUGAACAAAGAAAAUCUGGGCCAGGCAGGCAUCAAAAGAAAUAGUCUUGCGCUCAACCAGAAAGUCUGUAAUCAUUUUAAGGGUA, the self-cleavage is 1.37.
Consider GUUAACGGUCAUAGGCCAUGGAAGCUAGGAGCACCAUUUCGCAGCCAGUGAAGAAAUGAACAAAGAAAAUCUGGGCCAGGCAGGCAUCAAAAGAAAUAGUCUUGCGCUCAACCAGAAAGUCUGUAAUCAUUUUAAGGGUA, for which the self-cleavage came to 1.29.
As for GUUAACGGUCAUAGGCCAUGGAAGCUAGGAGCACCAUUUCGCUGCCAGUGAAGAAAUGAACAAAGAAAAUCCGGGCCAGGCAGGCAUCAAAAGAAAUAGUCUUGCGCUCAACCAGAAAGUCUGUAAUCAUUUUAAGGGUA, the self-cleavage came out at 0.27.
With GUUAACGGUCAUAGGCCAUGGAAGCUAGGAGCACCAUUUCGCUGCCAGUGAAGAAAUGAACAAAGAAAACCUGGGCCAGGCAGGCAUCAAAAGAAAUAGUCUUGCGCUCAACCAGAAAGUCUGUAAUCAUUUUAAGGGUA the figure was 0.53.
For GUUAACGGUCAUAGGCCAUGGAAGCUAGGAGCACCAUUUCGCUGCCAGUGAAGAAAUGAACAAAGAAAAUCUGGGCCAGGCAGGCAUCAAAAGAAAUAGUCUUGCGCCCAACCAGAAAGUCUGUAAUCAUUUUAAGGGUA, the self-cleavage amounted to 0.03.
GUUAACGGUCAUAGGCCAUGGAAGCUAGGAGCACCAUUUCGCUGCCAGUGAAGAAAUGAACAAAGAAAAUCUGGGCCAGGCAGGCAUCAAAAGAAAUAGUCUUGCGCACAACCAGAAAGUCUGUAAUCAUUUUAAGGGUA: the self-cleavage turned out to be 0.04.
With GUUAACGGUCAUAGGCCAUGGAAGCUAGGAGCACCAUUUCGCUGCCAGUGAAGAAAUGAACAAAGAAAAUCUGGGCCAGGCAGGCAUCAAAAGAAAUAGCCUUGCGCUCAACCAGAAAGUCUGUAAUCAUUUUAAGGGUA, the self-cleavage was 1.97.
GUUAACGGUCAUAGGCCAUGGAAGCUAGGAGCACCAUUACGCUGCCAGUGAAGAAAUGAACAAAGAAAAUCUGGGCCAGGCAGGCAUCAAAAGAAAUAGUCUUGCGCUCAACCAGAAAGUCUGUAAUCAUUUUAAGGGUA: the self-cleavage stood at 1.45.
With GUUAACGGUCAUAGGCCAUGGAAGCUAGGAGCACCAUUUCGCUGCCAGUGAAGAAAUGAACAAAGAAAAUCUGGGCCAGGCAGGCAUCAAAAGAAAUAGUCUUGCGCUCAACCAGAAAGUCUGUAAUCAUUUUAACGGUA the figure was 1.47; with GUUAACGGUCAUAGGCCAUGGAAGCUAGGAGCACCAUUUCGCUGCCAGUGAAGAAAUGAACAAAGAAAAUCUGGGCCAGGCAGGCACCAAAAGAAAUAGUCUUGCGCUCAACCAGAAAGUCUGUAAUCAUUUUAAGGGUA, 1.18; with GUUAACGGUCAUAGGCCAUGGAAGCUAGGAGCACCACUUCGCUGCCAGUGAAGAAAUGAACAAAGAAAAUCUGGGCCAGGCAGGCAUCAAAAGAAAUAGUCUUGCGCUCAACCAGAAAGUCUGUAAUCAUUUUAAGGGUA, 1.12.
GUUAACGGUCAUAGGCCAUGGAAGCUAGGAGCACCAUUUCGCUGCCAGUGAAGAAACGAACAAAGAAAAUCUGGGCCAGGCAGGCAUCAAAAGAAAUAGUCUUGCGCUCAACCAGAAAGUCUGUAAUCAUUUUAAGGGUA: the self-cleavage is 1.51.
With GUUAACGGUCAUAGGCCAUGGAAGCUAGGAGCACCAUUUCGCUGCCAGUGAAGAAAUGAACAAAGAAAAUCUGGGCCAGGCAGGCAUCAAAAGAAAUAGUCUUACGCUCAACCAGAAAGUCUGUAAUCAUUUUAAGGGUA, the self-cleavage worked out at 0.04.
GUUAACGGUCAUAGGCCAUGGAAGCCAGGAGCACCAUUUCGCUGCCAGUGAAGAAAUGAACAAAGAAAAUCUGGGCCAGGCAGGCAUCAAAAGAAAUAGUCUUGCGCUCAACCAGAAAGUCUGUAAUCAUUUUAAGGGUA: the self-cleavage turned out to be 0.81.
For the variant GUUAACGGUCAUAGGCCAUGGAAGCUAGGAGCACCAUUUCGCUGCCAGUGAAGAAAUGAACAAAGAAAAUCUGGGCCAGGCAGGCAUCAAAAGAAAUAGUCUUGCGCUCAACCAGAAAGUCUAUAAUCAUUUUAAGGGUA, the self-cleavage turned out to be 1.48.
Consider GUUAACGGUCAUAGGCCAUGGAAGCUAGGAGCACCAUUUCGCUGCCAGUGAAGAAAUGAACAAAGAAAAUCUGGGCCAGGCAGGCAUCAAAAGAAAUAGUCUUGCGCUCAACCAGAAAGCCUGUAAUCAUUUUAAGGGUA, for which the self-cleavage worked out at 0.35.
GUUAACGGUCAUAGGCCAUGGAAGCUAGGAGCACCAUUUCGCUGCCAGUGAAGAAAUGAACAAAGAAAAUCUGGGCCAGGCAGGCAUCAAAAGAAAUAGUCAUGCGCUCAACCAGAAAGUCUGUAAUCAUUUUAAGGGUA: the self-cleavage is 0.51.
The same measure for GUUAACGGUCAUAGGCCAUGGAAGCUAGGAGCACCAUUUCGCUGCCAGUGAAGAAAUGAACAAAGAAAAUCUGGGCCAGGCAGGCAUCAAAAGAAAUAGUCCUGCGCUCAACCAGAAAGUCUGUAAUCAUUUUAAGGGUA: 1.48; for GUUAACGGUCAUAGGCCAUGGAAGCUAGGAGCACCAUUUCGCUGCCAGUGAAGAAAUGAACAAAGAAAAUCUGGGCCAGGCAGGCAUCAAAAGAAAAAGUCUUGCGCUCAACCAGAAAGUCUGUAAUCAUUUUAAGGGUA: 1.79.

Values taken from the RNAGym collection of RNA variant scans (doi:10.7554/elife.90254).
